Patent US20190309035A1, “PEPTIDE OR COLLECTION OF PEPTIDES DERIVED FROM AMYLOID PRECURSOR PROTEIN” (Ludwig-Maximilians-Universität München, priority 2015, published 2019)
“Also recorded” adds a separate entry of the source.

Tests used:
[1] = molecular target: T1, BACE1 (Cricetulus griseus, UniProt G3IAK4); assay: BACE1 inhibitor treatment of CHO cells expressing human APPV717F, Western blot of supernatants; type: cell-based; details: 2 μM
T1 construct: endogenous in cells; host or cells: CHO cells overexpressing human APPV717F (CHO / 7PA2)
T1 sequence (G3IAK4 22-501): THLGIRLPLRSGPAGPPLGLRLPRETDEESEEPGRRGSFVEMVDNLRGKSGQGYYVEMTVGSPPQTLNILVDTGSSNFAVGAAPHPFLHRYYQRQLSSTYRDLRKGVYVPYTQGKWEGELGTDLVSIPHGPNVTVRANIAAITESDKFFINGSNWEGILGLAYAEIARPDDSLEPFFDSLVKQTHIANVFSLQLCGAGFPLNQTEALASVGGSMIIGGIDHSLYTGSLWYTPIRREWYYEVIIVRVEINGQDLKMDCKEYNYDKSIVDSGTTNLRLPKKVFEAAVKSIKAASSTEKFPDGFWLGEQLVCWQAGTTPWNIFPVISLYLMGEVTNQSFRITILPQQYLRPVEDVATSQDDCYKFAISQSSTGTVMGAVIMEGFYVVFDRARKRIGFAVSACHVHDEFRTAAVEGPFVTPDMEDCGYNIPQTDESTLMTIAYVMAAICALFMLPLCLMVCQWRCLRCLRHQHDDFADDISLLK
Procedure: a) Supernatants of CHO cells expressing human APPV717F without or with BACE1 inhibition (BI; 2 μM Merck IV) were compared to synthetic peptides of Aη-β and Aη-α. Increased Aη-α peptide levels were observed upon BACE1 inhibitor treatment with 2D8 and 2E9 antibodies. The fragment with the lowest molecular weight, co-migrating with the synthetic peptide Aη-β, disappeared upon BACE1 inhibition b) After overnight incubation of DIV 16 primary hippocampal neurons without or with the BACE1 inhibitor (BI; 2 μM Merck IV), supernatants were analyzed by Western blotting. […] Total levels of secreted APP (22C11) were unchanged while sAPP-α levels increased. […] Inhibitor treated mice and vehicle treated controls were sacrificed and analyzed after 5, 8 or 24 h. […]
CHO and 7PA2^44 cells were grown in DMEM/F12 (Thermo Scientific) supplemented with 10% fetal calf serum (FCS, Thermo Scientific) plus Penicillin/Streptomycin and NEAA (Non-essential amino acids, PAA) in a humid incubator with 5% CO2 at a temperature of 37° C. […] The protein concentration of lysates was determined using the Uptima BC Assay Protein Quantitation kit (Interchim).
Proteins were separated under denaturing conditions using discontinuous SDS-PAGE. […] CTFs, Aη and Aβ were detected after transfer on Nitrocellulose membranes (Protran BA85; GE Hlealthcare), while other proteins were blotted on PVDF (Immobilon-P, Merck Millipore). […]

[2] = system: hippocampal LTP; assay: Long-term potentiation (LTP) recordings in acute hippocampal slices (fEPSP at the CA3-CA1 synapse); type: cell-based, mouse; details: for fEPSP baseline responses after incubation with SEC fractions: 1/15 dilution, 15 min bath application before LTP induction
Procedure: a) Aη-α and Aη-β peptides were expressed in CHO cells and collected in OPTIMEM medium. […] Higher molecular weight bands are most likely due to posttranslational modification by glycosylation. b-e) SEC fractions enriched for Aη were diluted (1:15) in ACSF for the treatment of hippocampal slices and LTP measurements. Aη-α, Aη-β and control SEC fractions (obtained from CHO cells transfected with the empty vector) were perfused over mouse hippocampal slices for 15 min after obtaining a stable baseline of a fEPSP at the CA3-CA1 synapse.
OPTIMEM was used to collect CHO cell supernatants. SEC was performed with concentrated CHO supernatants using a FPLC (ÄKTApurifier) equipped with a Superdex75 column (GE Healthcare). 1 ml samples were collected with a mobile phase flow rate set at 0.5 ml/min in standard ACSF. Acute hippocampal slices were prepared from Swiss mice (PND20-30) and kept in ACSF^42. Extracellular field excitatory post-synaptic potentials (fEPSPs) were obtained from CA1 pyramidal neurons. After 15 minutes of bath application of SEC fractions^43, LTP was induced by high frequency stimulation (2 pulses of 100 Hz for 1 second with a 20 second inter-pulse interval). LTP was recorded for 60 minutes and statistical analysis was performed on the last 15 minutes of recording compared to baseline fEPSP values.
Transverse hippocampal slices ([…]) were prepared from postnatal day 20-30 Swiss mice following standard procedures^56. Slices were cut in ice-cold oxygenated (95% O2/5% CO2) solution containing 206 mM sucrose, 2.8 mM KCl, 1.25 mM NaH2PO4, 2 mM MgSO4, 1 mM MgCl2, 1 mM CaCl2, 26 mM NaHCO3, 0.4 mM sodium ascorbate, 10 mM glucose (pH 7.4). For recovery (1 h), slices were incubated at 27° C. in oxygenated standard artificial cerebrospinal fluid (ACSF) containing: 124 mM NaCl, 2.8 mM KCl, 1.25 mM NaH2PO4, 2 mM MgSO4, 3.6 mM CaCl2, 26 mM NaHCO3, 0.4 mM sodium ascorbate, 10 mM glucose (pH 7.4)^57. Slices were inspected in a chamber on an upright microscope (Slicescope, Scientifica Ltd) with IR-DIC illumination and were perfused with the oxygenated ACSF at 27±1° C. Field excitatory post-synaptic potentials (fEPSPs) were recorded in the stratum radiatum of the CA1 region using a glass electrode (filled with 1 M NaCl/10 mM HEPES, pH 7.4) and the stimuli (30% of maximal fEPSP) were delivered to the Schaeffer Collateral pathway by a monopolar glass electrode (filled with ACSF). Electrodes were specifically placed just below the surface of the slice to maximize the exposure to circulating peptides. A minimum of 15 minutes stable baseline was first obtained in standard ACSF followed by another 15 minutes of bath application of ACSF containing SEC fractions (CHO, Aη-α or Aη-β; 1/15 dilution, interleaved recordings) using re-circulation with a peristaltic pump at 2.5-3 ml min^−1 while being continuously aerated with 95% oxygen. […] In the continuous presence of the ACSF/SEC solution, LTP was then induced using a high frequency stimulation (HSF) protocol with 2 pulses of 100 Hz for 1 sec with 20 see interval between pulses, and recorded for one hour. Control recordings (no application of SEC fractions) were obtained in an interleaved fashion where ACSF was re-circulated using an identical procedure. For LTP analysis, the first third of the fEPSP slope was calculated in baseline condition (15 minutes prior to induction of LTP and for 60 minutes post-induction). […]

[3] = SEC fractions from conditioned media of CHO cells, diluted 1:15 in ACSF, perfused 15 min before HFS, LTP 45-60 min post-HFS

lowest molecular weight fragment co-migrating with synthetic Aη-β [1] | Aη-α peptide levels in supernatant ([1]; 2D8 and 2E9 antibodies) | Molecule | effect on LTP ([2]; 100 nM final in 25 ml re-circulating ACSF, vs interleaved ACSF recordings, 45-60 min post-LTP induction) | fEPSP baseline responses after incubation with SEC fractions [2] | effect on LTP [2, 3]
disappeared | Increased | C[C@@H](NC(=O)c1cc(C(=O)N[C@@H](Cc2ccccc2)[C@H](O)CNC2CC2)cc(N(C)S(C)(=O)=O)c1)c1ccccc1 [Merck IV] | – | – | –
– | – | AβS26C dimers: AβS26C dimers from JPT Peptide Technologies, Germany [reference compound] | reduced | – | –
– | – | Aη-α: Aη-α-peptide (residues 505-612 of P05067-4), 108 aa, expressed in CHO cells and enriched by SEC (protein, listed as Homo sapiens) MISEPRISYGNDALMPSLTETKTTVELLPVNGEFSLDDLQPWHSFGADSVPANTENEVEPVDARPAADRGLTTRPGSGLTNIKTEEISEVKMDAEFRHDSGYEVHHQK | – | No alterations | significantly inhibited
– | – | Aη-β: Aη-β-peptide (residues 505-596 of P05067-4), 92 aa, expressed in CHO cells and enriched by SEC (protein, listed as Homo sapiens) MISEPRISYGNDALMPSLTETKTTVELLPVNGEFSLDDLQPWHSFGADSVPANTENEVEPVDARPAADRGLTTRPGSGLTNIKTEEISEVKM | – | No alterations | had no effect; also recorded: did not significantly inhibit
